Paper PMC12173945, “Import mechanism of peroxisomal proteins with an N-terminal signal sequence” (Nature Cell Biology, 2025)

Key:
PEX5–GFP in YG hydrogel = experiment: YG hydrogel release assay, PEX5–GFP (Fig. 6d); assay type: biochemical; conditions: fourfold excess of PEX39
Protocol: YG hydrogels were prepared in a glass-bottomed plate as described earlier and equilibrated for 3 h at RT in Assay Buffer containing 0.5 µM PEX7–GFP or PEX5–GFP with or without PTS2 peptide and receptor at the concentrations specified in the text. Following the initial incubation, the hydrogels were imaged on a Nikon A1R point-scanning confocal system, as described earlier, with a Nikon ×10 0.45 NA Plan Apo air objective, a pinhole dilated to 1.4 Airy units and a pixel size of 2 µm. A solution of purified PEX39 was then spiked into each reaction and the hydrogels imaged every 2 min for an additional 1 h at RT.
For the PEX7-release assay from YG hydrogels, the total fluorescence within a 30-µm-wide band in the gel extending for 150 µm from the gel edge into the gel was measured at each time point. This distance was sufficient to fully encompass the permeation front of each fluorescent species. The resulting values were then normalized to the total fluorescence inside the gel at the start of the experiment and plotted as a function of time.

[1] = system: PEX7–GFP influx into YG hydrogel; experiment: Influx of PEX7–GFP into YG hydrogel in the presence of PEX39 (Fig. 6f-i); assay type: biochemical, yeast; conditions: for Percent PEX7-GFP influx (+ PTS2 peptide + PEX5-21) / Percent PEX7-GFP influx (+ PTS2 peptide + PEX5S) / Percent PEX7-GFP influx: 60 min; for Percent PEX7-GFP influx: PEX7-GFP without PTS2 peptide/PEX5
Protocol: Fig. 6 PEX39 can extract PEX7 from the YG phase. a, YG hydrogels were prepared in a glass-bottomed dish and pre-equilibrated with PEX7–GFP. PEX39 was then added to the buffer and a point-scanning confocal microscope was used to follow the PEX7–GFP fluorescence over time. b, PEX7–GFP signal in the gel over time at the indicated molar ratios of wild-type PEX39 (relative to PEX7). The mean (bold line) and range (shading) of three experiments are shown. c, As in b using a fourfold excess of wild-type (WT) PEX39 or mutants harbouring alanines in place of the APH (∆APH), the RPWE motif (∆RPWE) or both (∆APH + ∆RPWE). d, As in b using PEX7–GFP or PEX5–GFP and a fourfold excess of wild-type PEX39. e, As in b using a fourfold excess of PTS2 peptide and the PEX7-binding chimaeric receptor PEX5-21 (left) or PTS2 peptide and the non-PEX7-binding receptor isoform PEX5S (right). Wild-type PEX39 was titrated as indicated. f, YG hydrogel droplets were incubated with PEX7–GFP in the presence of PEX39. The effect of PEX39 on the influx of PEX7–GFP into the gel was then assessed using a point-scanning confocal microscope. g, PEX7–GFP influx in the presence of the indicated molar ratios of wild-type PEX39 (relative to PEX7) with or without a fourfold excess of PTS2 peptide and either PEX5S or PEX5-21. The mean (bars) and individual values (circles) of three experiments are shown. h, As in g using PEX7–GFP or PEX5–GFP and the indicated molar ratios of wild-type PEX39. i, As in g using wild-type PEX39 or the indicated mutants. Source numerical data are provided. Source data
A solution of the purified wild-type YG-domain polypeptide (or the variant lacking the KPWE motif) was concentrated to 2 mM in 50 mM HEPES·NaOH pH 7.8 at RT, 2 M urea and 2 mM TCEP. Aliquots of 2 µl were then spotted on the bottom of multiple wells of a 96-well glass-bottomed plate (Cellvis, P96-1.5H-N), which was then sealed with a gas-impermeable AlumaSeal II film (Hampton Research, HR8-069) to prevent desiccation and incubated at RT for 24 h. Before each assay, the resulting gels were equilibrated overnight at RT in a 100-fold excess of Assay Buffer (25 mM HEPES·NaOH pH 7.8 at RT, 150 mM NaCl and 1 mM TCEP). A 0.5 µM solution of fluorescently labelled protein in Assay Buffer was then added to the samples, with or without additional components at the concentrations indicated in the text, and incubated at RT. Gels were imaged at the times indicated in the text using a Nikon A1R point-scanning confocal system consisting of an inverted Nikon Eclipse Ti microscope and a Nikon ×20 0.75 NA Plan Apo air objective. The objective was centred on the gel edge and focus was maintained 5 µm above the glass surface using the Nikon Perfect Focus System. Fluorescence was excited through a 405/488/561/647 quad-band dichroic (Chroma), using a 488-nm solid-state laser (Coherent) and a galvano scanner. A 50-nm emission band was collected on a gallium arsenide phosphide detector, using an ET525/50m (525 ± 25 nm) single-band bandpass filter (Chroma) and a pinhole dilated to 0.9 Airy units. Images were acquired using the Nikon NIS-Elements software with a pixel size of 1 µm and a 12-bit digitizer. Imaging parameters were configured to maximize the SNR while avoiding saturation. All samples intended to be compared were imaged using identical acquisition settings.

B1: PEX39 (WT): PEX39 from S. cerevisiae (GenBank accession no. NP_012546.4) (protein)
chain: MAAGGELSYEELLDHILNNKPIPNIVEVPNVTLDEGLASTPSLRPRPRPWEGQLQHQSHQGSLDKPNISLDIDQESLEGMTSLTRLSECYDIQSKLQINDSDNDNDDNNNDNNKGDGNDDDNNTVTANPTAR
modifications: left off: GST, N-terminal, cleaved
PEX5–GFP in YG hydrogel
  Extraction of PEX5–GFP from YG hydrogel: unable to extract PEX5–GFP from the hydrogel
[1]; PEX7–GFP alone or with PTS2 peptide and PEX5S
  Effect on influx of PEX7–GFP into YG hydrogel: blocked the influx of PEX7–GFP alone as well as PEX7–GFP in the presence of a PTS2 peptide and PEX5S
[1]; PEX7–GFP in complex with PTS2 peptide and PEX5-21
  Effect on influx of PEX7–GFP into YG hydrogel, PEX5-21 complex: much less inhibitory
[1]; PEX39 1×, replicate 1
  Percent PEX7-GFP influx (+ PTS2 peptide + PEX5-21): 66.880%
  Percent PEX7-GFP influx (+ PTS2 peptide + PEX5S): 23.191%
  Percent PEX7-GFP influx: 49.645%
[1]; PEX39 1×, replicate 2
  Percent PEX7-GFP influx (+ PTS2 peptide + PEX5-21): 83.899%
  Percent PEX7-GFP influx (+ PTS2 peptide + PEX5S): 21.558%
  Percent PEX7-GFP influx: 60.527%
[1]; PEX39 1×, replicate 3
  Percent PEX7-GFP influx (+ PTS2 peptide + PEX5-21): 114.523%
  Percent PEX7-GFP influx (+ PTS2 peptide + PEX5S): 32.481%
  Percent PEX7-GFP influx: 62.401%
[1]; PEX39 2×, replicate 1
  Percent PEX7-GFP influx (+ PTS2 peptide + PEX5-21): 50.795%
  Percent PEX7-GFP influx (+ PTS2 peptide + PEX5S): 5.154%
  Percent PEX7-GFP influx: 14.576%
[1]; PEX39 2×, replicate 2
  Percent PEX7-GFP influx (+ PTS2 peptide + PEX5-21): 68.223%
  Percent PEX7-GFP influx (+ PTS2 peptide + PEX5S): 5.013%
  Percent PEX7-GFP influx: 15.433%
[1]; PEX39 2×, replicate 3
  Percent PEX7-GFP influx (+ PTS2 peptide + PEX5-21): 111.257%
  Percent PEX7-GFP influx (+ PTS2 peptide + PEX5S): 4.961%
  Percent PEX7-GFP influx: 14.730%
[1]; PEX39 4×, replicate 1
  Percent PEX7-GFP influx (+ PTS2 peptide + PEX5-21): 53.842%
  Percent PEX7-GFP influx (+ PTS2 peptide + PEX5S): 2.693%
[1]; PEX39 4×, replicate 2
  Percent PEX7-GFP influx (+ PTS2 peptide + PEX5-21): 47.057%
  Percent PEX7-GFP influx (+ PTS2 peptide + PEX5S): 2.263%
[1]; PEX39 4×, replicate 3
  Percent PEX7-GFP influx (+ PTS2 peptide + PEX5-21): 58.495%
  Percent PEX7-GFP influx (+ PTS2 peptide + PEX5S): 2.329%
[1]; PEX39 at 4× molar ratio, replicate 1
  Percent PEX7-GFP influx: 7.357%
[1]; PEX39 at 4× molar ratio, replicate 2
  Percent PEX7-GFP influx: 5.802%
[1]; PEX39 at 4× molar ratio, replicate 3
  Percent PEX7-GFP influx: 7.696%
